# Results reported in publication PMC12148588 (eBioMedicine, 2025).
# Molecular target: T1, SARS-CoV-2 RBD of the Wuhan strain (Acro Biosystems SPD-C82E9-25) (SARS-CoV-2, Wuhan strain, UniProt P0DTC2)
# T1 construct: source: bought: Acro Biosystems
# Assay: SPR; Biacore 8K+, […]; 10 mM HEPES pH 7.4, 150 mM NaCl, 3 mM EDTA, 0.05% Tween 20; […]
# Conditions: both partners purified
binder,measurement,value
"MB043_CL39 (antibody, V domains shown) VH: EVQLVETGGGLIHPGGSLRLSCAASEFIVSYNYMSWVRQAPGKGLEWVSVIYSGGSTFYADAVKGRFTISRDSSKNTLDLLMNSLRVEDTAVYYCARVLPSNTDYFDYWGQGILVTVSS VL: QSVLTQPPSVSGATGQRVTISCTGSNSNIGAGSDVHWYQQLPGAAPKLLIYVNNNRPSGVPDRFSGSKSGTSASLAITGLQAEDEADYYCQSYDSSLSGYVFGTGTKVTVL",fold higher affinity than MB027_D06L,> 200 fold
